B1: huCBE11 altered antibody with mutation N434L (antibody, human IgG1, kappa)
heavy: not shown
light: DIQMTQSPSSLSASVGDRVTITCKAGQDIKSYLSWYQQKPGKAPKLLIYYATRLADGVPSRFSGSGSGTDYTLTISSLQPEDFATYYCLQHGESPWTFGGGTKLEIKRTVAAPSVFIFPPSDEQLKSGTASVVCLLNNFYPREAKVQWKVDNALQSGNSQESVTEQDSKDSTYSLSSTLTLSKADYEKHKVYACEVTHQGLSSPVTKSFNRGEC
notes: Position is in EU numbering
B2: huCBE11 altered antibody with mutation Q438E (antibody, human IgG1, kappa)
heavy: not shown
light: B1 light
notes: Position is in EU numbering
B3: A287D (antibody)
heavy: not shown
light: B1 light
notes: EU numbering, EU N297 = residue 300 of the chain; the sheets number them 2 and 4; also called huCBE11 altered antibody with mutation A287D; copies: 2 + 2
B4: R255M (antibody)
heavy: not shown
light: B1 light
notes: EU numbering, EU N297 = residue 300 of the chain; the sheets number them 2 and 4; also called huCBE11 altered antibody with mutation R255M; copies: 2 + 2
B5: huCBE11 altered antibody with mutation S304D (antibody, human IgG1, kappa)
heavy: not shown
light: B1 light
notes: Position is in EU numbering
B6: huCBE11 altered antibody with mutation V282E (antibody, human IgG1, kappa)
heavy: not shown
light: B1 light
notes: Position is in EU numbering
B7: huCBE11 altered antibody with mutation M252T (antibody, human IgG1, kappa)
heavy: not shown
light: B1 light
notes: Position is in EU numbering
B8: V284D (antibody, human IgG1, kappa)
heavy: not shown
light: B1 light
notes: EU numbering, EU N297 = residue 300 of the chain; the sheets number them 2 and 4; also called huCBE11 altered antibody with mutation V284D; copies: 2 + 2
B9: L314K (antibody)
heavy: not shown
light: B1 light
notes: EU numbering, EU N297 = residue 300 of the chain; the sheets number them 2 and 4; also called huCBE11 altered antibody with mutation L314K; copies: 2 + 2
B10: S304E (antibody, human IgG1, kappa)
heavy: not shown
light: B1 light
notes: EU numbering, EU N297 = residue 300 of the chain; the sheets number them 2 and 4; also called huCBE11 altered antibody with mutation S304E; copies: 2 + 2
B11: D376N (antibody)
heavy: not shown
light: B1 light
notes: EU numbering, EU N297 = residue 300 of the chain; the sheets number them 2 and 4; also called huCBE11 altered antibody with mutation D376N; copies: 2 + 2
B12: E345Q (antibody, human IgG1, kappa)
heavy: not shown
light: B1 light
notes: EU numbering, EU N297 = residue 300 of the chain; the sheets number them 2 and 4; also called huCBE11 altered antibody with mutation E345Q; copies: 2 + 2
B13: H285D (antibody, human IgG1, kappa)
heavy: not shown
light: B1 light
notes: EU numbering, EU N297 = residue 300 of the chain; the sheets number them 2 and 4; also called huCBE11 altered antibody with mutation H285D; copies: 2 + 2
B14: E345R (antibody)
heavy: not shown
light: B1 light
notes: EU numbering, EU N297 = residue 300 of the chain; the sheets number them 2 and 4; also called huCBE11 altered antibody with mutation E345R; copies: 2 + 2
B15: V279E (antibody, human IgG1, kappa)
heavy: not shown
light: B1 light
notes: EU numbering, EU N297 = residue 300 of the chain; the sheets number them 2 and 4; also called huCBE11 altered antibody with mutation V279E; copies: 2 + 2
B16: huCBE11 altered antibody with mutation M252S (antibody, human IgG1, kappa)
heavy: not shown
light: B1 light
notes: Position is in EU numbering
B17: H285F (antibody)
heavy: not shown
light: B1 light
notes: EU numbering, EU N297 = residue 300 of the chain; the sheets number them 2 and 4; also called huCBE11 altered antibody with mutation H285F; copies: 2 + 2
B18: huCBE11 altered antibody with mutation K290D (antibody, human IgG1, kappa)
heavy: not shown
light: B1 light
notes: Position is in EU numbering
B19: A287E (antibody)
heavy: not shown
light: B1 light
notes: EU numbering, EU N297 = residue 300 of the chain; the sheets number them 2 and 4; also called huCBE11 altered antibody with mutation A287E; copies: 2 + 2
B20: R255L (antibody)
heavy: not shown
light: B1 light
notes: EU numbering, EU N297 = residue 300 of the chain; the sheets number them 2 and 4; also called huCBE11 altered antibody with mutation R255L; copies: 2 + 2
B21: K288D (antibody, human IgG1, kappa)
heavy: not shown
light: B1 light
notes: EU numbering, EU N297 = residue 300 of the chain; the sheets number them 2 and 4; also called huCBE11 altered antibody with mutation K288D; copies: 2 + 2
B22: K288E (antibody, human IgG1, kappa)
heavy: not shown
light: B1 light
notes: EU numbering, EU N297 = residue 300 of the chain; the sheets number them 2 and 4; also called huCBE11 altered antibody with mutation K288E; copies: 2 + 2
B23: K288M (antibody)
heavy: not shown
light: B1 light
notes: EU numbering, EU N297 = residue 300 of the chain; the sheets number them 2 and 4; also called huCBE11 altered antibody with mutation K288M; copies: 2 + 2

One assay concerns the target T1, biotinylated human FcRn-huM4Fc fusion protein (human, biotinylated with BiotinXX sulfosuccinimidyl ester (sites not given)).
T1 construct: also called bhFcRnFc; biotinylated Fc/FcRn fusion protein
Nature of the assay: FRET competition, pH 5.8: competitor mAb against Eu-labelled h5C8 for biotinylated hFcRnFc; reference w.t. control antibody.
On to B1, for which the “fold lower FcRn binding affinity than the control antibody” value was around 4000 fold.

For a further assay, the target named is T1, biotinylated human FcRn-huM4Fc fusion …. Nature of the assay: AlphaScreen competition, pH 6.0: altered antibody against human IgG1 acceptor beads for biotinylated hFcRnFc; reference control antibody. (In general: In Alpha technology, singlet oxygen from a donor bead excites a nearby acceptor bead.)
In the case of B2, the “fold lower FcRn binding affinity than the control antibody” value was around 1500 fold.

The target is the same in a further assay. Nature of the assay: FRET competition at pH 5.8: unlabelled competitor mAb against Eu-labelled h5C8 for bhFcRnFc; plotted is mutant IC50/wt IC50.
With B3, the binding result is recorded as “binds”.
With B4, the binding result is reported as “binds”.
Take B5: the binding result is given as “binds”.
Still for that read-out and setting: for B6 the value was “binds”; for B7, “binds”; for B8, “binds”.
For the molecule B9, the binding result is “binds”.
As to B10, the binding result is “binds”.
Still for that read-out and setting: for B11 the value was “binds”; for B12, “binds”; for B13, “binds”.
On to B14, for which the binding result is “binds”.
Take B15: the binding result is recorded as “binds”.
Take B16: the binding result was “binds”.
Turning to B17, the binding result is “binds”.
B18: the binding result is “binds”.

Another assay has the same target. Briefly: AlphaScreen competition at pH 6.0: antibody in solution against human IgG1 acceptor beads for bhFcRnFc on streptavidin donor beads; plotted is IC50 (ug/ml by paragraph 723, no unit on the sheet).
As for B19, the binding result is “binds”.
B20: the binding result was “binds”.
With B21, the binding result is listed as “binds”.
Turning to B22, the binding result is “binds”.
Take B23: the binding result is on record as “binds”.

The record behind these values is patent US20070148164A1 (Biogen, published 2007).
